± gives the uncertainty stated by the source.
Experiment: amyloid nucleation score (Sup35N fusion, yeast selection) (log enrichment); library NNK1; higher = more nucleation; inactive = no reads after selection
Summary of the method: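 Sup35N fusions to peptides of 20 random codons were expressed in psi-negative yeast, induced 24 hours with 100 μM copper sulfate, and grown 7 days at 30°C on medium lacking adenine and uracil. Input and output plasmid inserts were sequenced by Illumina. The nucleation score is the DiMSum log enrichment of output over input reads, centred on the mode score of non-aggregating sequences. Sequences with under 100 input reads were excluded.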

| Substance | amyloid nucleation score |
| --- | --- |
| RFGYFFHLVGAGEGHGKGAC | 0.686 ± 0.59 |
| ASDLGATKHNLHFIACIFSL | 4.77 ± 0.074 |
| CFGRRRVRIELGTAWPFSVL | -0.754 ± 1.1 |
| CGDMWLTDSLHGMNCSLFRR | inactive |
| GCFEFVCEVAVGVSLDYSYL | -0.085 ± 0.28 |
| DFCFPSNVRGLDCGGSKGYR | inactive |
| GRSFGQSGRISRAGNVGIIC | -0.266 ± 0.38 |
| NGTRYMEAIMEKSLC | 1.47 ± 0.4 |
| FHMARKQETTSI | -0.18 ± 1.7 |
| VWRGRGCNHLYVMEEKLVGV | 0.623 ± 0.41 |
| LLFGTHVPIRRGRFDASMIY | 0.58 ± 0.5 |
| SELYLFSSRGIYQSTRLRLR | -0.147 ± 0.81 |
| GEYLRLSIWGLDKDNKGVQ | -0.073 ± 0.42 |
| YWWKMLERQTRS | 0.374 ± 0.9 |
| SCLWGMRLKL | -0.366 ± 0.8 |
| PYSQFANLSIYVMDMMRGIR | 5.562 ± 0.048 |
| CFNLALLRVLAGTKLYSFMG | 0.64 ± 0.35 |
| SVLLEGFLSYPDLSTNLIHV | -0.416 ± 0.81 |
| ELKSAFCWRARLG | 0.197 ± 0.49 |
| VFRTLHSPSVSSGRWSSELS | -0.475 ± 0.5 |
| MSMKQEEVDGSSW | -0.553 ± 1.5 |
| NNGPIPNILKEL | 0.523 ± 0.41 |

| Substance | amyloid nucleation score |
| --- | --- |
| PLRASRTMTSGKLQPNLRRK | 0.035 ± 0.76 |
| SKYDLISRANVLFVSANYRH | 0.511 ± 0.76 |
| MAFMHLIISYCRYIF | 0.341 ± 0.74 |
| SSMYDSCSLRCLGQVVR | 0.711 ± 0.19 |
| IECVS | -0.251 ± 0.68 |
| ELLCLNL | -0.83 ± 0.73 |
| QRRALHTL | -0.069 ± 0.46 |
| FSTMAYTWVLYTSWACAGAS | 0.075 ± 0.69 |
| YRFWEI | -0.25 ± 0.35 |
| RMYYAFVCGGEDMESEFPCY | -0.037 ± 1.4 |
| SNILFLYRMKRALPNSSWEA | 0.152 ± 0.48 |
| SRMGPGNYWANGKSFAARPP | -0.491 ± 1.4 |
| SGILNAKLNSIGIEKSYAGF | -2.07 ± 2.4 |
| RGICWWLNIHWGKAMDMLGP | 0.428 ± 0.97 |
| LNLGGSF | inactive |
| KAEYSDLASFGCHGHEEGGG | 0.793 ± 1 |
| KHRLGQSMVSVRHYRFWGRI | -0.437 ± 0.57 |
| PINLLVLIAGNFYWLWTFGQ | 2.84 ± 0.15 |
| RIWPRSMYRPSSGCVET | -0.281 ± 0.52 |
| TKLSPFNIGLRCRYHNLALN | -1.52 ± 0.45 |
| VYLVGASWPADVDEFGGRKD | -0.402 ± 0.54 |
| LWYTFMSLHLGTVLEVRK | inactive |

| Substance | amyloid nucleation score |
| --- | --- |
| GLLFVKGTVDRQAWSGFEAH | -0.796 ± 1.2 |
| ICYKGREHKPRIVNIGSDVR | inactive |
| IKCHYFDVCLNVWSLCYLAC | 1.24 ± 0.46 |
| CYMYFWNRVDFT | 0.581 ± 0.17 |
| HGCSSVILVGMRAEEIFLYY | 2.71 ± 0.14 |
| EYSVYDRYRPGNCCRTSRMD | 0.251 ± 0.31 |
| CHCNL | 1.81 ± 0.38 |
| QDRNVSWLYIGSVTGRRVAG | 0.488 ± 0.66 |
| IYGGYEK | 0.626 ± 0.84 |
| FGFTGLTSW | -0.146 ± 1.4 |
| QFKKVGPPLVKNLAQVRMRM | -0.033 ± 0.47 |
| TMYTVVPNHWNNISFRALSR | -0.909 ± 0.74 |
| SVFWDLTSDWAKIGVKK | -1.03 ± 0.89 |
| KLIPCLLVITINLGHKATLS | 0.482 ± 0.39 |
| GTNYYSSGML | 0.114 ± 0.35 |
| GIVHAPCDFHTSSFWW | -0.147 ± 0.84 |
| QPNSWELWPCSDLRIRLVEE | 0.104 ± 0.34 |
| HPSTRCAVANDNIWPLSGPR | 0.628 ± 0.75 |
| ILSSFILVANCWILFHPLFW | -0.411 ± 0.52 |
| ILCICY | 2.48 ± 0.2 |
| PFNGSLFYYVSWVKTNYGYY | 0.225 ± 0.93 |
| ICCGCRYFFSTTSV | 6.7 ± 0.06 |

| Substance | amyloid nucleation score |
| --- | --- |
| VRMIT | 0.388 ± 0.64 |
| FYQTS | 0.634 ± 0.4 |
| NRWSGLSHRS | -1.63 ± 2.1 |
| NCSMPFETMMKHSRN | -0.068 ± 0.53 |
| INVFNCCWRLIFVLEV | 2.72 ± 0.14 |
| NYSDLKRGHRLDSADGWDGI | -0.613 ± 1.1 |
| KLDCMVDDICGTSGTVFLCL | 4.85 ± 0.061 |
| HYVGSLMVSW | 0.188 ± 0.81 |
| PMQNSTPLFYSNAWSE | -0.096 ± 1.1 |
| TFIITSRFLYSDVAT | -1.33 ± 0.45 |
| GVDKASYPHSFGEQWLSLSL | 0.844 ± 0.97 |
| LRCLYIG | -0.818 ± 0.86 |
| QVTTSPQ | -0.387 ± 0.56 |
| YFHPLTKLI | -0.288 ± 0.82 |
| TLNDYYCFMLCGAVNG | 0.071 ± 0.63 |
| EFLNSNLLNTYMKLFLIITH | 3.36 ± 0.21 |
| TKNSRTRLASSSLIWNW | -1.45 ± 0.76 |
| WKMNGPFDFDPRRMISHDLK | -0.158 ± 0.42 |
| HERDIQSSIGDWNKLSKPCN | -0.418 ± 0.31 |
| KGICRGRSLSVPESWAPFR | 0.133 ± 0.31 |
| ANLDYWRSSTFTEHMVGLNR | -0.469 ± 1.2 |
| RMTWQM | -0.885 ± 2.1 |
